Reference: patent publication US20230087570A1 (NATIONAL CANCER CENTER, published 2023)

Target: T1, mouse TIM-3 expressed on cells (mouse, UniProt Q8VIM0 20-281)
T1 construct: whole, on cells; also called mTIM-3
Assay: flow cytometry on mouse primary glial cells (FIG. 7 legend)
Method: FACS analysis was performed to determine whether the selected antibody, hTIM-3_NCC1, specifically binds to mouse TIM-3 as well as human TIM-3.
Specifically, 0.5 μg of hTIM-3_NCC1 antibody was reacted to mouse primary glial cells for 30 minutes, and then stained with a secondary antibody (APC-human IgG Fc; Biolegend, cat #409305). In addition, mouse CD11b⁺ cells overexpressing mouse TIM-3 (3×10⁵ cells) were separated using a-BV421-conjugated anti-CD11b antibody (BD, cat #562605) and then 0.5 μg of hTIM-3_NCC1 antibody and PE-conjugated anti-mouse were reacted for 30 minutes. These cells were surface-stained with a secondary antibody (APC-Human IgG Fc) and then measured by flow cytometry.

T1 sequence (Q8VIM0 20-281): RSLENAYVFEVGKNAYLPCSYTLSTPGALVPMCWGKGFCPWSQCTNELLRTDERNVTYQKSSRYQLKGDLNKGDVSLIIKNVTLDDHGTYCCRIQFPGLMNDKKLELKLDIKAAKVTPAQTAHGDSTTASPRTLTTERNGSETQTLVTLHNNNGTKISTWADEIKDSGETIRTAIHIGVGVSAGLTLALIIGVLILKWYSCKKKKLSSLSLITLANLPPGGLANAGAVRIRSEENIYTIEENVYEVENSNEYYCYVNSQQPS

B1: hTIM-3_NCC1 (Fc fusion)
scFv: EVQLVESGGGLVQPGGSLRLSCAASGSIFSNGYMTWYRQAPGKGLELVSSINSRGVTNYADSVKGRFTISRDNSKNTLYLQMNSLRAEDTAVYYCAALLPHEIRKYWGQGTQVTVSSGGGSHGGGSGGGSVDDIQMTQSPDSLAVSLGERATINCKSSQSVFYNSNNKNYLGWYQKKPGQPPKLLIFWASTRESGVPDRFSGSGSGTDFTLTISSLQAEDVAVYYCQQYYSTPRTLGGGTKVDIKR
notes: Human scFv from a naive phage library, tested as scFv-hIgG (hIgG1) and detected with anti-human IgG secondary antibodies; also called scFv-TIM3 #4; ScFV-TIM3 #4; not shown: human IgG1 part (named only as 'hscFv-hIgG1')
- binding result: binds
